Data: patent US7098310B1, “Heterodimers of retinoid X receptors (RXRS) and other steroid hormone receptors” (Ligand Pharmaceuticals, priority 1991, dated 2006)

T1: retinoic acid receptor RARβ (UniProt P10826 1-455, limits assumed)
T1 construct: mature; In vitro translated
T1 sequence (looked up): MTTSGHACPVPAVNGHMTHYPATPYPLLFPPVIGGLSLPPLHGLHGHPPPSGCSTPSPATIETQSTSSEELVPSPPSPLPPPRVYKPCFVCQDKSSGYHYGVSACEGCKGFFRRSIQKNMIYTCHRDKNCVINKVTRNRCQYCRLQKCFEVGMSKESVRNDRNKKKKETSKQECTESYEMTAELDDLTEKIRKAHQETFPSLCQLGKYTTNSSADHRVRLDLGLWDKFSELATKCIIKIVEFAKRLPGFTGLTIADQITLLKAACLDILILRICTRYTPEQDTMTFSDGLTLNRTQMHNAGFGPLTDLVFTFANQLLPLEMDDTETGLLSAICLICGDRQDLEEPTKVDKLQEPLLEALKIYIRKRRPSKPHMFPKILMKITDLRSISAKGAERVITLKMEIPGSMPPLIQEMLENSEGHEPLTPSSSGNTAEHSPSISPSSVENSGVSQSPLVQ

T2: retinoic acid receptor RARα (UniProt P10276 1-462, limits assumed)
T2 construct: mature; In vitro translated
T2 sequence (looked up): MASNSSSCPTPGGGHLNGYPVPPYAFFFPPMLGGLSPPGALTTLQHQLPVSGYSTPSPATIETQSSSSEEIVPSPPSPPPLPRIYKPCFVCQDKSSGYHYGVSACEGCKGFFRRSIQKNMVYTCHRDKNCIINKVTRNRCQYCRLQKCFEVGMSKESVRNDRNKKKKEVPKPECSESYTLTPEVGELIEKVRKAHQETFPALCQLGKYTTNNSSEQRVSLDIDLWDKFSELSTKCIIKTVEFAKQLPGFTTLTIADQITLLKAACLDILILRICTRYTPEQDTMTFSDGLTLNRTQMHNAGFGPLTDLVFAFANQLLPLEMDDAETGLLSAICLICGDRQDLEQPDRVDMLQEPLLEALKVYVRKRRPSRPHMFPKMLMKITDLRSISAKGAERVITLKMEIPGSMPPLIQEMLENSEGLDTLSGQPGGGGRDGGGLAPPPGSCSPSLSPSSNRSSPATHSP

T3: retinoic acid receptor RARγ (UniProt P13631 1-454, limits assumed)
T3 construct: mature; In vitro translated
T3 sequence (looked up): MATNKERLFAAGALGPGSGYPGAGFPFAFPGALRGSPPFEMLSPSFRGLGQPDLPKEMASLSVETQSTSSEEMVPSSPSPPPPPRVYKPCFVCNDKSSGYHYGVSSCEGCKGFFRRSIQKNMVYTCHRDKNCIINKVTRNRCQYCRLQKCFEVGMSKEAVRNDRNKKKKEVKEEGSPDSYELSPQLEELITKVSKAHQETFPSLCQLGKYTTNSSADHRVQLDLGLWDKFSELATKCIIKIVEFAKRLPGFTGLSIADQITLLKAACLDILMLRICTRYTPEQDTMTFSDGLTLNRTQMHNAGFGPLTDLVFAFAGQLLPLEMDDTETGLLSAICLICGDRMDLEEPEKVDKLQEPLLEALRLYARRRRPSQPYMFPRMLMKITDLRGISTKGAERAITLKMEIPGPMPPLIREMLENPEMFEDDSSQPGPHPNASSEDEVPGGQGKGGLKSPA

T4: retinoid x receptor (RXRα) (human, UniProt P19793 1-462)
T4 construct: mature; In vitro translated full length receptor; 35S-labelled in the column and immunoprecipitation experiments
T4 sequence (looked up): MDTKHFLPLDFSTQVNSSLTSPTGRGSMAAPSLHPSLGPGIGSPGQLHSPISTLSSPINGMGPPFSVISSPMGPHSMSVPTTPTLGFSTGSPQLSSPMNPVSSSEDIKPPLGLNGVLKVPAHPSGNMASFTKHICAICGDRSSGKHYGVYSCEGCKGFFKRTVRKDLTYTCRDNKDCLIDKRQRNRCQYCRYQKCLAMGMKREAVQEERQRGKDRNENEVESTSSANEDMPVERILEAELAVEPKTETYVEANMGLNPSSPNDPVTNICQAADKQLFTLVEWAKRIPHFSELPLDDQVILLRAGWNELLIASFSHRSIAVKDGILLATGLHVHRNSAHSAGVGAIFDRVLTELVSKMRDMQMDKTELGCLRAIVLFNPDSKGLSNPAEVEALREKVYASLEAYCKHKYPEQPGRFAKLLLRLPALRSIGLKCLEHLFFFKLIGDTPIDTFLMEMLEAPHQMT

T5: FLAG-RXRα (human, UniProt P19793 1-462)
T5 construct: mature; in vitro translated; also called F-RXRα
T5 sequence: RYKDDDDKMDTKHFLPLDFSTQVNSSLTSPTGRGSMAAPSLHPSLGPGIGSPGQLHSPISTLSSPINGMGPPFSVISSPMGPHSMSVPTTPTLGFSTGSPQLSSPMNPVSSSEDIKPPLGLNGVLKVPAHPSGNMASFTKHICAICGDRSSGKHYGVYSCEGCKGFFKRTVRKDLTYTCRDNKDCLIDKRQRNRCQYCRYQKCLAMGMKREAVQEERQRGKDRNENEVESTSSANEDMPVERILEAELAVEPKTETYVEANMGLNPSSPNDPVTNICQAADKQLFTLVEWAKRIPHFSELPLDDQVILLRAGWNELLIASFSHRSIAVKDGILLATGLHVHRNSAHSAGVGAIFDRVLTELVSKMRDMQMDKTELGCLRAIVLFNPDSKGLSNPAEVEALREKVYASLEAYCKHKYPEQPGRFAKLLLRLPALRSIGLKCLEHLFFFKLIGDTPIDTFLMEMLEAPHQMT

T6: estrogen receptor (ER) (UniProt P03372 1-595, limits assumed)
T6 construct: In vitro translated; 35S-labelled in the column experiment
T6 sequence (looked up): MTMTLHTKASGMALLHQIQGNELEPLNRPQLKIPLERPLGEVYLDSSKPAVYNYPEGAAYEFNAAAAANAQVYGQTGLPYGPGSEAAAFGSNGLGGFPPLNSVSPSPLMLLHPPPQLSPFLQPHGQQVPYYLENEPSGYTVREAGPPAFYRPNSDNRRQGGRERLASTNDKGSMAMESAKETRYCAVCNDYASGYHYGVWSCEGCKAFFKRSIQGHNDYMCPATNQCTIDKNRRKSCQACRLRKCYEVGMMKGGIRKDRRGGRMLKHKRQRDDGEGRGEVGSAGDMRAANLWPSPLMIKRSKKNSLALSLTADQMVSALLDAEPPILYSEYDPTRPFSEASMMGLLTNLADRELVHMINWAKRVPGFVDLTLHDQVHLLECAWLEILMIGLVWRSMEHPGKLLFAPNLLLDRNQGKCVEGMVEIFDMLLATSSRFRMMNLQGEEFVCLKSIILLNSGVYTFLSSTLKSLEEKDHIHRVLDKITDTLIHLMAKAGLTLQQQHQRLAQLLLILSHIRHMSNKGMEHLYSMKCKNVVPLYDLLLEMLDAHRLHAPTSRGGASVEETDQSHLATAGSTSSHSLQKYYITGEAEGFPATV

B1: RXRαm2 (receptor, human, UniProt P19793 1-387, looked up)
chain: MDTKHFLPLDFSTQVNSSLTSPTGRGSMAAPSLHPSLGPGIGSPGQLHSPISTLSSPINGMGPPFSVISSPMGPHSMSVPTTPTLGFSTGSPQLSSPMNPVSSSEDIKPPLGLNGVLKVPAHPSGNMASFTKHICAICGDRSSGKHYGVYSCEGCKGFFKRTVRKDLTYTCRDNKDCLIDKRQRNRCQYCRYQKCLAMGMKREAVQEERQRGKDRNENEVESTSSANEDMPVERILEAELAVEPKTETYVEANMGLNPSSPNDPVTNICQAADKQLFTLVEWAKRIPHFSELPLDDQVILLRAGWNELLIASFSHRSIAVKDGILLATGLHVHRNSAHSAGVGAIFDRVLTELVSKMRDMQMDKTELGCLRAIVLFNPDSKGLSNPA
notes: range: lacks the carboxyterminal 75 amino acids; In vitro translated deletion mutant
B2: thyroid hormone receptor TRβ (receptor, human, UniProt P10828 1-461, looked up)
chain: MTPNSMTENGLTAWDKPKHCPDREHDWKLVGMSEACLHRKSHSERRSTLKNEQSSPHLIQTTWTSSIFHLDHDDVNDQSVSSAQTFQTEEKKCKGYIPSYLDKDELCVVCGDKATGYHYRCITCEGCKGFFRRTIQKNLHPSYSCKYEGKCVIDKVTRNQCQECRFKKCIYVGMATDLVLDDSKRLAKRKLIEENREKRRREELQKSIGHKPEPTDEEWELIKTVTEAHVATNAQGSHWKQKRKFLPEDIGQAPIVNAPEGGKVDLEAFSHFTKIITPAITRVVDFAKKLPMFCELPCEDQIILLKGCCMEIMSLRAAVRYDPESETLTLNGEMAVTRGQLKNGGLGVVSDAIFDLGMSLSSFNLDDTEVALLQAVLLMSSDRPGLACVERIEKYQDSFLLAFEHYINYRKHHVTHFWPKLLMKVTDLRMIGACHASRFLHMKVECPTELFPPLFLEVFED
notes: mature; In vitro translated; also called TR-B; c-erb-A-B
B3: RXRαm7 (receptor, human, UniProt P19793 1-462, looked up)
chain: MDTKHFLPLDFSTQVNSSLTSPTGRGSMAAPSLHPSLGPGIGSPGQLHSPISTLSSPINGMGPPFSVISSPMGPHSMSVPTTPTLGFSTGSPQLSSPMNPVSSSEDIKPPLGLNGVLKVPAHPSGNMASFTKHICAICGDRSSGKHYGVYSCEGCKGFFKRTVRKDLTYTCRDNKDCLIDKRQRNRCQYCRYQKCLATGLHVHRNSAHSAGVGAIFDRVLTELVSKMRDMQMDKTELGCLRAIVLFNPDSKGLSNPAEVEALREKVYASLEAYCKHKYPEQPGRFAKLLLRLPALRSIGLKCLEHLFFFKLIGDTPIDTFLMEMLEAPHQMT
notes: In vitro translated deletion mutant
B4: glutathione S-transferase-RARγ fusion protein (bacterially expressed FLAG-RARγ fusion protein) (other)
chain: RYKDDDDKMATNKERLFAAGALGPGSGYPGAGFPFAFPGALRGSPPFEMLSPSFRGLGQPDLPKEMASLSVETQSTSSEEMVPSSPSPPPPPRVYKPCFVCNDKSSGYHYGVSSCEGCKGFFRRSIQKNMVYTCHRDKNCIINKVTRNRCQYCRLQKCFEVGMSKEAVRNDRNKKKKEVKEEGSPDSYELSPQLEELITKVSKAHQETFPSLCQLGKYTTNSSADHRVQLDLGLWDKFSELATKCIIKIVEFAKRLPGFTGLSIADQITLLKAACLDILMLRICTRYTPEQDTMTFSDGLTLNRTQMHNAGFGPLTDLVFAFAGQLLPLEMDDTETGLLSAICLICGDRMDLEEPEKVDKLQEPLLEALRLYARRRRPSQPYMFPRMLMKITDLRGISTKGAERAITLKMEIPGPMPPLIREMLENPEMFEDDSSQPGPHPNASSEDEVPGGQGKGGLKSPA
notes: mature; FLAG-RARγ cDNA cloned in frame into pGex-2T, expressed in bacteria, purified on glutathione sepharose 4B; also called RARγ-glutathione transferase fusion protein; glutathione transferase-RARγ; not shown: glutathione S-transferase encoded by the expression vector pGEX-2T (Pharmacia); vector linker not described

Legend:
[1] = system: RXRα-TRα and RXRα-RARα complexes; assay: Gel retardation assay of RXRα interaction with TRα or RARα on palindromic TRE; assay type: binding
[2] = target: T1, retinoic acid receptor RARβ; assay: gel retardation, 32P palindromic TRE (data not shown)
[3] = target: B2; assay: as above
[4] = target: T2, retinoic acid receptor RARα; assay: as above
[5] = target: T3, retinoic acid receptor RARγ; assay: gel retardation, 32P palindromic TRE, in vitro translated receptors
Method: (§1) After incubation at room temperature for 45 minutes, the effect of antibody on slow migrating complexes was analyzed by gel retardation using ^32-labelled palindromic TRE as a probe. As a control, receptor mixtures were also incubated with preimmune serum (NI).
(§2) In vitro translated receptor protein (1 to 5 µl depending on the translation efficiency) was incubated with the ^32P-labeled oligonucleotides in a 20-µl reaction mixture containing 10 mM hepes buffer, pH 7.9, 50 mM KCl, 1 mM DTT, 2.5 mM MgCl, 10% glycerol, and 1 µg of poly(dI-dC) at 25° C. for 20 minutes. In general, relative low receptor concentration was used to obtain the clear effect of heterodimer formation. The reaction mixture was then loaded on a 5% nondenaturing polyacrylamide gel containing 0.5× TBE (1×TBE=0.089 M TRIS-borate, 0.089 M boric acid, and 0.002 M EDTA). […] When antibody was used, 1 µl of the antiserum was incubated with the specific translation products at room temperature for 45 minutes before performing the experiments described above.

[6] = target: T4, retinoid x receptor (RXRα); assay: as above
Method: as §1, §2

FLAG-RXRα = target: T5, FLAG-RXRα; assay: as above
Method: as §1, §2

estrogen receptor (ER) = target: T6, estrogen receptor (ER); assay: glutathione sepharose affinity column, 35S-labelled ER, no DNA

| Molecule | binding result [2] | binding result [3] | binding result [4] | binding result [5] | other results |
| --- | --- | --- | --- | --- | --- |
| N[C@@H](Cc1cc(I)c(Oc2ccc(O)c(I)c2)c(I)c1)C(=O)O [T3] |  |  |  |  | effect on migration rate of the TRα complex ([1]; T3 10^−7 M): slightly increases the migration rate; influence of hormone on formation of slow migrating complexes ([1]; hormone 10^−7 M, TRα and RARα with RXRα): no clear influence |
| B1 | no binding | no binding | no binding | no binding |  |
| B2 |  |  |  |  | binding result [6]: binds; binding result (FLAG-RXRα): binds |
| B3 | no binding | no binding | no binding | no binding |  |
| B4 |  |  |  |  | binding result (estrogen receptor (ER)): no binding |
